Experiments:
转化生长因子-β1 (TGF-β1) = 转化生长因子-β1 (TGF-β1) (human, UniProt P01137 279-390); assay: SPR (Biacore X100), cG7-sTGFBR2 captured by anti-human IgG(Fc) on a CM5 chip, TGF-β1 as analyte, 25℃
[1] = molecular target: T1, CD24裸肽 (CD24 naked peptide, SPR analyte) (human, UniProt P25063 27-59, limits assumed); assay: SPR (Biacore X100), cG7-sTGFBR2 captured by anti-human IgG(Fc) on a CM5 chip, CD24 naked peptide as analyte, 25℃
T1 construct: also called 抗原CD24
T1 peptide (looked up): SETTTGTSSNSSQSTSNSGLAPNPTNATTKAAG

Sequence of 转化生长因子-β1 (TGF-β1) (P01137 279-390 limits assumed): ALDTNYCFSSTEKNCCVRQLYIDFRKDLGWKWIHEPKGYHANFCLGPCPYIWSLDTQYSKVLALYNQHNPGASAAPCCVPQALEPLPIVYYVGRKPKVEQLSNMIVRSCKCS

Kd (转化生长因子-β1 (TGF-β1)): 55.5 nM
koff (转化生长因子-β1 (TGF-β1)): 0.0636 s⁻¹
kon (转化生长因子-β1 (TGF-β1)): 1.15e+06 M⁻¹ s⁻¹
Kd [1]: 0.122 nM
koff [1]: 1.14e-05 s⁻¹
kon [1]: 93700 M⁻¹ s⁻¹
B1: 靶向CD24的双特异性融合抗体cG7-sTGFBR2 (anti-CD24 humanized chimeric antibody cG7 fused at the heavy chain C-terminus via Gly4Ser to the human TGFBR2 extracellular domain … (bispecific antibody, human IgG1, kappa)
heavy: not shown
light: DIVMTQTPLSLSVTIGQPASISCKSSQSLLHSDGKTYLNWLLQRPGQSPKRLIYLVSKLDSGVPDRFTGSGSGTDFTLKVSRVEAEDLGVYYCWQGAHFPYTFGGGTKLEIKVDTVAAPSVFIFPPSDEQLKSGTASVVCLLNNFYPREAKVQWKVDNALQSGNSQESVTEQDSKDSTYSLSSTLTLSKADYEKHKVYACEVTHQGLSSPVTKSFNRGEC
notes: also called 融合双特异性抗体cG7-sTGFBR2
